Laboratory results as given in doi:10.1101/212837 (bioRxiv, 2017).

Target: human acid α-glucosidase (GAA), 123-200 fragment of the protease-treated enzyme (human, UniProt P10253 123-200)
Assay: crystal structure

binding result: binds
B1: human acid α-glucosidase (GAA), 80-115 fragment of the protease-treated enzyme (domain or fragment)
chain: not shown
